Experimental data reported in PMC9916804.

Key:
[1] = target: gametogenesis essential protein 1 (GEP1), truncation GEP1^192-905, Strep-tagged; test: pull-down (Strep-Tactin beads), GFP intensity of elution; design: reference not given here; conditions: co-expression of GEP1-192-905 and GCα-2301-3850; parent: est. 100; read off a plot
[2] = target: gametogenesis essential protein 1 (GEP1), truncation GEP1^192-905, Strep-tagged (Plasmodium yoelii); test: pull-down; mutants of mEGFP-GCα^2301-3850 with Strep-tagged GEP1^192-905 on Strep-Tactin beads; GFP intensity of the eluates against WT; whether co-expressed or mixed is not stated

| Substance | percent of parent [1] | GFP intensity of the pull-down eluate, percent of WT [2] |
| --- | --- | --- |
| guanylate cyclase α C-terminal half, GCα^2301-3850, with N-terminal mEGFP E2794A | 80% | – |
| guanylate cyclase α C-terminal half, GCα^2301-3850, with N-terminal mEGFP D3642V | 100% | – |
| GCα^2301-3850 (GCα-C) Q2755A, mEGFP-tagged (domain or fragment) | – | 49.2 % of WT |
| guanylate cyclase α C-terminal half, GCα^2301-3850, with N-terminal mEGFP D3598A | 110% | – |
| guanylate cyclase α C-terminal half, GCα^2301-3850, with N-terminal mEGFP N3724W | 110% | – |
| guanylate cyclase α C-terminal half, GCα^2301-3850, with N-terminal mEGFP S2910W | 74% | – |
